According to PMC5238629, “Streptavidin-coated gold nanoparticles: critical role of oligonucleotides on stability and fractal aggregation”:

Molecular target: streptavidin (Streptomyces avidinii, UniProt P22629 25-183)
Assay: SPR; binding through the 3'-biotin, not the DNA sequence; 10 uM BiotinDNA in water gave about 90 RU; about 70 RU lost on displacement by free biotin (0.01-10.24 mM); SPR: 10 uM BiotinDNA in water, 10 uL/min, immobilized streptavidin; displacement by free biotin in water; temperature and pH not given
Conditions: protein: commercial; chain copies: 4; single strand

streptavidin, sequence (P22629 25-183): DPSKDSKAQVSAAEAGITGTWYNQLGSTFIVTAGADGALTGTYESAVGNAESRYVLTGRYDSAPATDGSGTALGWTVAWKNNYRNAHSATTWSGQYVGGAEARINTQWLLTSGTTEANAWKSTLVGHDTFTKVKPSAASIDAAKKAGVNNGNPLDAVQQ

B1: BiotinDNA (ssDNA)
DNA: AGCAGCCTAAG
modifications: 3'-biotin
binding result: binds
